The results in this text go back to patent US9175027B2, “Polymer-carbohydrate-lipid conjugates” (priority 2011, dated 2015).

Data set [1] is described as follows: Stability of peptide solution by HPLC assay. Type of data set: physicochemical. Particulars: 24 hours. How it is done:
Stability experiment was carried out by HPLC assay and a custom synthesized thermolabile peptide with the following sequence was used as the model compound: […] The peptide was added to selected media and sonicated for 10 minutes. The sample solutions were filtered through passed through 0.22-μm pore-size filter to remove dust particles before the HPLC assay. A Simadzu 10avp chromatography system with a Kinetex C18 (2.6 μm, 100×4.6 mm i.d.) column (Phenomenex, Torrance, Calif.) were used. The solutions were kept at 25° C. in the Autosampler during the assay and the mobile phase consisted of 0.1% of trifluoroacetic acid and acetonitrile mixture (v/v, 80/20) with a flow rate of 1.0 mL/min. The peptide peak was monitored at 210 nm and quantitated using external standard sets of the peptide.
The plots were the % recovery vs. time.

Data set [2] in a line: Physical state of Propofol formulation with PEG-carbohydrate-lipid (solution vs suspension/microemulsion). Type of data set: physicochemical. How it is done: A propofol solution suitable for intravenous delivery is prepared as follows. 5% (w/v) of OAPDL-PEG in Saline was added to a vessel equipped with a mixer propeller and 2% (w/v) of Propofol was added with constant mixing at ambient room temperature. Mixing was continued until the drug was visually dispersed. Equal volume of Saline was added to the vessel with adequate mixing. Mixing continued for another 30 minutes or until a homogenous solution was achieved. A sample formulation is described in Table 14.
In Example 16, less concentrated or less purified PEG-sugar-lipid will create a suspension instead of an aqueous solution. For instance, the final concentration of the PEG-carbohydrate-lipid is less than 1.5% (w/v), it will form a suspension. Similarly when the oligomer purity is 80% or less, regardless the concentration of the PEG-carbohydrate-lipid, an emulsified solution will be observed instead of a transparent solution.
Propofol as the active agent was formulated with various polymer-lipid-carbohydrate conjugates described in the present invention. At a lower of the polymer-lipid-carbohydrate conjugate concentration, i.e., OAPDL-11 (<1.5%), the formulation is a microemulsion and at a higher OAPDL-11 concentration (≧2.2%), it is a true solution.
A solution is defined as a homogenous mixture of substances with variable composition. […]

Data set [3] can be described thus: Body weight change as evidence of cisplatin renal toxicity. The note with it: mice, compared with free sugars. The class given is in vivo, mice (B6D2F1). How it is done:
Groups of four each of mixed gender mice (B6D2F1), […] and weights of 22 to 30 grams) were studied in duplicate. Each mouse was administrated cisplatin intravenously at a dose of 10 mg/kg (Table 15) and Intraperitoneally at a dose of 15 mg/kg (Table 16). The changes in body weights observed can be used as a direct evident in the renal toxicity effects.

Ends that are not written are not given here.

Regarding “FPKLSHGCNKHSRKHPYMTF [peptide, custom synthesized thermolabile peptide used as the model compound]”, the peptide degradation result in data set [1] (in a 50 mM of phosphate buffer) was “degraded significantly”. The peptide still remaining result in data set [1] (in a 2% of PEG-carbohydrate-lipid) was “more than 97%”.

Consider “oleoyl-N-(3-aminopropyl)propane-1,3-diamine-Undecaethylene glycol methyl ether Lactobionate [OAPDL-11]”, for which the “state of Propofol formulation” value in data set [2] (OAPDL-11 concentration <1.5%) is reported as “microemulsion”; in data set [2] (OAPDL-11 concentration ≧2.2%), “true solution”. The “intravenous hydration effect for reducing renal toxicity of cisplatin” value in data set [3] was “better than free sugars”.
